In paper PMC9237525, “Solution Structure of Tubuliform Spidroin N-Terminal Domain and Implications for pH Dependent Dimerization” (Frontiers in Molecular Biosciences, 2022):

How the values were obtained:
[1] = target: Argiope argentata TuSp NT E37Q E82Q (Argiope argentata); assay: SEC; Superdex 75 Increase 10/300 GL, 50 µl at 3 mg/ml, 20 mM NaOAc, 20 mM NaCl, pH 5.5
[2] = target: Argiope argentata TuSp NT E37Q E82Q E85Q (Argiope argentata); assay: as above
[3] = target: Argiope argentata TuSp NT E37Q E82Q E85Q D130N (Argiope argentata); assay: as above
[4] = target: the molecule itself; assay: 15N NMR relaxation (rotational correlation time); pH 5.5; T1 and T2 of backbone amides, 800 MHz; molecular weight estimated from the correlation time

With “Argiope argentata TuSp NT E37Q E82Q (domain or fragment)” the stoichiometry N [1] was 2.

With “Argiope argentata TuSp NT E37Q E82Q E85Q (domain or fragment)” the stoichiometry N [2] was 2.

“Argiope argentata TuSp NT E37Q E82Q E85Q D130N (domain or fragment)” was tested, and the stoichiometry N [3] was 2.

B1: Argiope argentata tubuliform spidroin (TuSp 1) N-terminal domain, wild type (domain or fragment)
chain: AVTAVPSVFSSPNLASGFLQCLTFGIGNSPAFPTQEQQDLDAIAQVILNAVSTNTGATASARAQALSTALASSLTDLLIAESAESNYNNQLSELTGILSNCFIQTTGSDNPAFVSRIQSLISVLSQNTDVNIISTA
notes: Tubuliform spidroin 1 (TuSp 1) N-terminal domain, Argiope argentata; 136 residues (count printed for the A70E variant); Expressed from pET-32a-HisTrxHisNT; Intramolecular disulfide C22-C102; 15N- or 13C,15N-labelled for NMR; Calculated mass 14.1 kDa (monomer); also called TuSp NT; wt TuSp NT; not shown: His-Trx, N-terminal, cleaved
In the case of B1, the “stoichiometry N” value [4] is reported as 2.
